# Assay results reported in publication PMC6515407, “Laccases with Variable Properties from Different Strains of Steccherinum ochraceum: Does Glycosylation Matter?” (International Journal of Molecular Sciences, 2019).
# Columns and labels:
# Assay in all cases: spectrophotometric oxidation kinetics
# Format in all cases: biochemical, Steccherinum ochraceum
# Settings in all cases: 0.1 M McIlvaine buffer pH 4.5, 25 °C, native glycosylated enzyme
# [1] = substrate: CCn1c(=NN=c2sc3cc(S(=O)(=O)O)ccc3n2CC)sc2cc(S(=O)(=O)O)ccc21
# Text: (§1) spectrophotometric oxidation kinetics on So2134
# [2] = substrate: COc1cc(C=NN=Cc2cc(OC)c(O)c(OC)c2)cc(OC)c1O
# Text: as §1
# [3] = substrate: COc1cccc(OC)c1O
# Text: as §1
protein,measurement,setting,value
So2134 (Steccherinum ochraceum) (protein) VQIGPVTDLHITNANIAPDGFTRPAVLAGGTFPGPTISGNTGDNFQITVFNELTETSMLTDTSIHWHGLFQKGTNWADGPAFVTQCPIITGNSFDYNFNVPGQAGTYWYHSHLSTQYCDGLRGPFVVYDPNDPNASLYDVDDDTTIITLADWYHTLAQQEPIGAAITADATLINGLGRSFTNTTASPLSVITVQSGKRYRMRLVSISCDPNYQFSIDGHDMTIIEVDGVNSQQLTVDQIQIFAAQRYSFVLNANQPVGNYWIRAQPNSGGQGFDGGINSAILRYEGATVADPTTSPPTTFTSPLVETNLHPLADLGVPGQPFRGGADDPMVLNLGFANGRFTIDGVSFVPPTVPVLLQILSGAQNAQDLLPAGSVISLPPNSVIEVALPAGAAGGPHPFHLHGHNFAVVQSANNATPNYVNPIWRDTVSIGGTGDNVTIRFTTNNPGPWFLHCHIDWHLEAGFAIVFAEDIPDTASANPVPQAWSDLCPAYDQAHNISTAT,Km,[1],100 ± 6 µM
same,kcat,[1],254 ± 23 s⁻¹
same,kcat/Km,[1],2.54e+06 ± 276000 M⁻¹ s⁻¹
same,Km,[2],3.7 ± 0.5 µM
same,kcat,[2],91 ± 7 s⁻¹
same,kcat/Km,[2],2.46e+07 ± 3.93e+06 M⁻¹ s⁻¹
same,Km,[3],21 ± 2 µM
same,kcat,[3],166 ± 14 s⁻¹
same,kcat/Km,[3],7.9e+06 ± 1.03e+06 M⁻¹ s⁻¹
